Each block holds one binder with its values, some of them ahead of it.
Molecular target: APP695 (human) (UniProt P05067)
Test: cell-based or functional assay

steady-state levels of transfected APP695 in HEK293 cells (quantitative immunoblot): < 3 fold
B1: Mint 1 (protein)
chain: MNHLEGSAEVEVADEAPGGEVNESVEADLEHPEVEEEQQPSPPPPAGHAPEDHRAHPAPPPPPPPQEEEEERGECLARSASTESGFHNHTDTAEGDVLAAARDGYEAERAQDADDESAYAVQYRPEAEEYTEQAEAEHAEAAQRRALPNHLHFHSLEHEEAMNAAYSGYVYTHRLFHRAEDEPYAEPYADYGGLQEHVYEEIGDAPELEARDGLRLYERERDEAAAYRQEALGARLHHYDERSDGESDSPEKEAEFAPYPRMDSYEQEEDIDQIVAEVKQSMSSQSLDKAAEDMPEAEQDLERAPTPGGGHPDSPGLPAPAGQQQRVVGTPGGSEVGQRYSKEKRDAISLAIKDIKEAIEEVKTRTIRSPYTPDEPKEPIWVMRQDISPTRDCDDQRPVDGDSPSPGSSSPLGAESSITPLHPGDPTEASTNKESRKSLASFPTYVEVPGPCDPEDLIDGIIFAANYLGSTQLLSDKTPSKNVRMMQAQEAVSRIKTAQKLAKSRKKAPEGESQPMTEVDLFISTQRIKVLNADTQEPMMDHPLRTISYIADIGNIVVLMARRRMPRSNSQENVEASHPSQDAKRQYKMICHVFESEDAQLIAQSIGQAFSVAYQEFLRANGINPEDLSQKEYSDLLNTQDMYNDDLIHFSKSENCKDVFIEKQKGEILGVVIVESGWGSILPTVIIANMMHGGPAEKSGKLNIGDQIMSINGTSLVGLPLSTCQSIIKGLKNQSRVKLNIVRCPPVTTVLIRRPDLRYQLGFSVQNGIICSLMRGGIAERGGVRVGHRIIEINGQSVVATPHEKIVHILSNAVGEIHMKTMPAAMYRLLTAQEQPVYI

steady-state levels of transfected APP695 in HEK293 cells (quantitative immunoblot): < 3 fold
B2: Mint 2 (protein)
chain: MAHRKRQSTASSMLDHRARPGPIPHDQEPENEDTELPLESYVPTGLELGTLRPDSPTPEEQECHNHSPDGDSSSDYVNNTSEEEDYDEGLPEEEEGVTYYIRYCPEDDSYLEGMDCNGEEYLAHGAHPVDTDECQEAVEDWTDSVGPHTHSHGAENSQEYPDSHLPIPEDDPTVLEVHDQEEDGHYCPSKESYQDYYPPETNGNTGGASPYRMRRGDGDLEEQEEDIDQIVAEIKMSLSMTSITSASEASPEHMPELDPGDSTEACSPSDTGRGPSRQEARPKSLNLPPEVKHSGDPQRGLKTKTRTPEERPKWPQEQVCNGLEQPRKQQRSDLNGPTDNNNIPETKKVASFPSFVAVPGPCEPEDLIDGIIFAANYLGSTQLLSERNPSKNIRMMQAQEAVSRVKRMQKAAKIKKKANSEGDAQTLTEVDLFISTQRIKVLNADTQETMMDHALRTISYIADIGNIVVLMARRRMPRSASQDCIETTPGAQEGKKQYKMICHVFESEDAQLIAQSIGQAFSVAYQEFLRANGINPEDLSQKEYSDIINTQEMYNDDLIHFSNSENCKELQLEKHKGEILGVVVVESGWGSILPTVILANMMNGGPAARSGKLSIGDQIMSINGTSLVGLPLATCQGIIKGLKNQTQVKLNIVSCPPVTTVLIKRPDLKYQLGFSVQNGIICSLMRGGIAERGGVRVGHRIIEINGQSVVATAHEKIVQALSNSVGEIHMKTMPAAMFRLLTGQETPLYI

steady-state levels of transfected APP695 in HEK293 cells (quantitative immunoblot): < 3 fold
B3: Mint 3 (protein, rat, UniProt O70248 1-569, looked up)
chain: MEFLPEPQHPPGPPTMDLEEPKGPEVPSEDHPSNTQWALGPRGPDTLSEMELDTSSVRALVQQLEALPSDLGGQFPDGAPCPLHIATGQGLATQENLDAGGLLSAEAGGDNLLGLLRCEASLPAQSVPPDPAQAAPRLLQPPEDPGGDPGWMEGTEPADNRSSSSSPELWLETAPLVTHRDPPVGTQSQETLASCPAVSEVPGPCGQEELMDGVLFGAKYLGSTQLLSERNPPPSTRMGQAQEAMDRVKAPEGETQPMTEVDIFISTKRVKVLAADSQDALMDHALQTISYIADIGPVLVLMARRRLAKRTTSQDRQRQLYKMLCHVFHSEDAQLIAQAIGQAFSIAYSQFLQENRIDPSQVGMQPSASASHPHNGDLDHFCNSQNCREVCIQKRPGEGLGVALVESGWGSLLPTAVIANLLHGGPAERCGALSIGDRVTAINGTSLVGLSLAACQAAVREVRRHSSVTLSIIHCPPVTTAVIHRPHVREQLGFCVENGIICSLLRGSAAERGGVRVGHRIIEVNGQSVVAMPHARIIQLLTETREIHIKTMPAATYRLLTGQEQPVYL

Source: patent US20030036169A1
